Drawing on patent US20250257149A1, this text covers EC50 (read off the curve) for one substance.

Experiment [1] concerns the target MUC1 tandem repeat peptide …-T(X)-… with GalNAcalpha (Tn) at T (human). Kind of experiment: antigen ELISA on Tn-PDTR MUC1 peptide, purified antibody [panel Binding to Tn-MUC1]. Background: ELISA stands for enzyme-linked immunosorbent assay.
The target in experiment [2] is MUC1 tandem repeat peptide …-T(X)-… with Galβ1-3GalNAcalpha (TF) at T (human). As to the kind of experiment: antigen ELISA on TF-PDTR MUC1 peptide, purified antibody [panel Binding to TF-MUC1].
MUC1 tandem repeat peptide …-T(X)-… with Galβ1-3GalNAcalpha (TF) at T (human), sequence (peptide, as listed by the source): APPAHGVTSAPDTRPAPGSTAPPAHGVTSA

MUC1 tandem repeat peptide …-T(X)-… with GalNAcalpha (Tn) at T (human), sequence (peptide, as listed by the source): as above

In general, EC50 (read off the curve) refers to the concentration needed to bring the measured effect to its halfway point. Higher therefore signals a less potent agent. PankoMab N54W (antibody): the figures for the EC50 (read off the curve) in experiment [1] and in experiment [2] were 10 ng/mL and 8 ng/mL, respectively.
